Measured values taken from patent publication US20110236309A1.

T1: TGF-β3 (Homo sapiens (Human)) (UniProt P10600)
T1 sequence: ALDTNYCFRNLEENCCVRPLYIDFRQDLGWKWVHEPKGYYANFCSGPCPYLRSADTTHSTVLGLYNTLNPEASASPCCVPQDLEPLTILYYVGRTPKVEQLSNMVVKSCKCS

B1: (TβRII)^2 homo-bivalent single-chain recombinant trap (designed binder, from a related filing)
chain: TIPPEQKLISEEDLLHVQKSVNNDMIVTDNNGAVKFPQLCKFCDVRFSTCDNQKSCMSNCSITSICEKPQEVCVAVWRKNDENITLETVCHDPKLPYHDFILEDAASPKCIMKEKKKPGETFFMCSCSSDECNDNIIFSEEYNTSNPDGGRHVQKSVNNDMIVTDNNGAVKFPQLCKFCDVRFSTCDNQKSCMSNCSITSICEKPQEVCVAVWRKNDENITLETVCHDPKLPYHDFILEDAASPKCIMKEKKKPGETFFMCSCSSDECNDNIIFSEEYNTSNPDHHHHHH
B2: (TβRIIb)^2 homo-bivalent single-chain recombinant trap (designed binder, from a related filing)
chain: APMAEGGGQNHHHHHHHHGGSFNPRIPPHVQKSVNNDMIVTDNNGAVKFPQLCKFCDVRFSTCDNQKSCMSNCSITSICEKPQEVCVAVWRKNDENITLETVCHDPKLPYHDFILEDAASPKCIMKEKKKPGETFFMCSCSSDECNDNIIFSEEYNTSNPDIPPHVQKSDVEMEAQKDEIICPSCNRTAHPLRHINNDMIVTDNNGAVKFPQLCKFCDVRFSTCDNQKSCMSNCSITSICEKPQEVCVAVWRKNDENITLETVCHDPKLPYHDFILEDAASPKCIMKEKKKPGETFFMCSCSSDECNDNIIFSEEYNTSNPD

Columns and labels:
[1] = target: T1, TGF-β3 (Homo sapiens (Human))
[2] = target: TGF-β1 (Homo sapiens (Human)) (UniProt P01137)
Sequence of TGF-β1 (Homo sapiens (Human)) (P01137 279-390 limits assumed): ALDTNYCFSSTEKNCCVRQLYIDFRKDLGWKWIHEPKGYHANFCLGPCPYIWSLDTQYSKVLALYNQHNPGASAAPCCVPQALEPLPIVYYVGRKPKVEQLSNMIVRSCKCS

[3] = target: T1, TGF-β3 (Homo sapiens (Human)); remark: listed apart in the source
[4] = target: TGF-β1 (Homo sapiens (Human)) (UniProt P01137); remark: listed apart in the source

| Binder | fold potency against TβRII-ED (neutralization, Mv1Lu luciferase reporter cells) [1] | fold potency against TβRII-ED (neutralization, Mv1Lu luciferase reporter cells) [2] | IC50 for TGF-β3 (neutralization, Mv1Lu luciferase reporter cells) [3] | IC50 for TGF-β1 (neutralization, Mv1Lu luciferase reporter cells) [4] |
| --- | --- | --- | --- | --- |
| B1 | 100 fold | 100 fold | 0.336 nM | 1.36 nM |
| B2 | 1000 fold | 1000 fold | 0.045 nM | 0.098 nM |
